Experimental data taken from the supplement of paper PMC10567573.

Assay: protein stability index of a GFP-peptide fusion (GPS, HEK-293T) (PSI 1-6); higher = more stable
Conditions: c terminus: native
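Further: lentivirally expressed fusion library, cells FACS-sorted into six equal-sized GFP/DsRed ratio bins, PSI computed from sequencing read fractions per bin weighted by bin number.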

EQRNSRWNTVLRAVKAKTHHLEPE [TRPA1 addE]
protein stability index (parent: NP_015628.1): 4.66

DGWIRVSSDNVADLHEKYSGSTPE [PSMB5 addE]
protein stability index (parent: NP_002788.1): 4

LPALFTDLYSQEITAEEAREALPE [SNF8 addE]
protein stability index (parent: NP_009172.2): 5.12

CQPISFSGFGAEDDDLGGLGLGPE [POLD2 addE]
protein stability index (parent: NP_006221.1): 2.57

HSLRAVSTDPPHHDHHDEFCLMPE [BEX2 addE]
protein stability index (parent: NP_116010.1): 4.74
